The experiment addresses T1, MERS-CoV S1-NTD (residues 1-351) with 8xHis-tag and Twin-Strep-tag (MERS-CoV (deposit 6PXH of this paper)).
T1 chain: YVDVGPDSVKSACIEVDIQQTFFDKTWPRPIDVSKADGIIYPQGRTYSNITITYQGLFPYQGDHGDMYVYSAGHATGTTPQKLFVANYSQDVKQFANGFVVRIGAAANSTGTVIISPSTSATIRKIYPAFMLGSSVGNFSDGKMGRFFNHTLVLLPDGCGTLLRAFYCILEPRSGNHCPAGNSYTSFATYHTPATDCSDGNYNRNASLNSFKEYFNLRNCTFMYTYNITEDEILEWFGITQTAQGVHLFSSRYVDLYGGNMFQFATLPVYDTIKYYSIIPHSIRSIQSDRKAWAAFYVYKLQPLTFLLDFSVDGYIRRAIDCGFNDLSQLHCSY
Put plainly: SPR. On the technique in general: SPR reads the build-up and loss of mass on a sensor chip optically.

In general, Kd refers to the equilibrium constant for the complex coming apart. Low readings indicate higher affinity, high ones lower affinity.

B1: G2 Fab (Fab, V domains shown)
VH: QVQLQQSGGELVKPGASVKLSCKTSGFTFSSSYISWLKQKPGQSLEWIAWIYAGTGGTEYNQKFTGKAQVTVDTSSSTAYMQFSSLTTEDSAIYYCARGGSSFAMDYWGQGTSVTVSS
VL: not shown
With B1, the affinity, expressed as Kd, was 28 nM.

Source of the values: publication PMC6935267 (Cell Reports, 2019).
